One molecule from patent US20150037356A1 (AstraZeneca / MedImmune, published 2015) can be followed below.

The target in one assay is T1, Siglec-5 on U937 cells (UniProt O15389 17-551, limits assumed).
T1 construct: whole, on cells
T1 sequence (looked up): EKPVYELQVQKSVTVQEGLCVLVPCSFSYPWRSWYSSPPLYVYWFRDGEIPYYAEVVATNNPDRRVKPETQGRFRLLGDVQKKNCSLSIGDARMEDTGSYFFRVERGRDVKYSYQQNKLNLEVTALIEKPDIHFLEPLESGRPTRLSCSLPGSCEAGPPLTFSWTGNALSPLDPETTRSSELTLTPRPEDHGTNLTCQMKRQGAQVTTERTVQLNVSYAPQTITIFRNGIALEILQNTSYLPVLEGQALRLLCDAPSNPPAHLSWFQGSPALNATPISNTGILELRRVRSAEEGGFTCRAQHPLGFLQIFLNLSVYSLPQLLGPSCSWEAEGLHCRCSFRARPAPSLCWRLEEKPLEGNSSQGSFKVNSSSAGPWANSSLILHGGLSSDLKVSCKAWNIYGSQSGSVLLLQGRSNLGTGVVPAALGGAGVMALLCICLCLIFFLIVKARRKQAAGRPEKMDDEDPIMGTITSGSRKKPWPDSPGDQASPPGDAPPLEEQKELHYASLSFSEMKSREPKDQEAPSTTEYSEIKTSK
Kind of assay: FACS on U937 cells.

A further assay has as its target T2, CD33 on U937 cells (UniProt P20138 18-364, limits assumed).
T2 construct: whole, on cells
In words: FACS on U937 cells.

In the next assay the target is T3, Siglec-9 on U937 cells (UniProt Q9Y336 18-463, limits assumed).
T3 construct: whole, on cells
T3 sequence (Q9Y336 18-463 limits assumed): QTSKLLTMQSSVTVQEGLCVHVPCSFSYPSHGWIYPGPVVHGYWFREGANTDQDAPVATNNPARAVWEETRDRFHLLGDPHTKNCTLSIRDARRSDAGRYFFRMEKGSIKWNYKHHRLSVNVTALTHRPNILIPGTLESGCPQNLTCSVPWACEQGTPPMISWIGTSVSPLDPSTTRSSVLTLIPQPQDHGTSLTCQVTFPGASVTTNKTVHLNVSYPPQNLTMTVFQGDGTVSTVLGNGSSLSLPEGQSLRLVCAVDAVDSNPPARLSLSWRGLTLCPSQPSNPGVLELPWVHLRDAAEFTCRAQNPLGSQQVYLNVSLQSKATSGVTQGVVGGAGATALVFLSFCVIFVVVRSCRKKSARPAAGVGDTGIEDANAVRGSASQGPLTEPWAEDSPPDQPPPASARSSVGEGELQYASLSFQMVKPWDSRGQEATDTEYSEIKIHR
Kind of assay: FACS on U937 cells.

Assay [1] concerns the target T4, endogenous Siglec-15 on leukaemic cell lines (human, UniProt Q6ZMC9 20-328).
T4 sequence (looked up): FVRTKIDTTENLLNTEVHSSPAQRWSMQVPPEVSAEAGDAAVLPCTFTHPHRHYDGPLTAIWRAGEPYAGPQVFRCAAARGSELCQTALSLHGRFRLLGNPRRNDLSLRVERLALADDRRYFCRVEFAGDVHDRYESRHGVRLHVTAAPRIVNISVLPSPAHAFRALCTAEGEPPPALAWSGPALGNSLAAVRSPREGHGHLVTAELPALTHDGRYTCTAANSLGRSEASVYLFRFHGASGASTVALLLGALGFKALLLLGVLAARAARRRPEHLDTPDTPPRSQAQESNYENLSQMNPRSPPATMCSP
Kind of assay: cell-based or functional assay.

T2 sequence (P20138 18-364 limits assumed): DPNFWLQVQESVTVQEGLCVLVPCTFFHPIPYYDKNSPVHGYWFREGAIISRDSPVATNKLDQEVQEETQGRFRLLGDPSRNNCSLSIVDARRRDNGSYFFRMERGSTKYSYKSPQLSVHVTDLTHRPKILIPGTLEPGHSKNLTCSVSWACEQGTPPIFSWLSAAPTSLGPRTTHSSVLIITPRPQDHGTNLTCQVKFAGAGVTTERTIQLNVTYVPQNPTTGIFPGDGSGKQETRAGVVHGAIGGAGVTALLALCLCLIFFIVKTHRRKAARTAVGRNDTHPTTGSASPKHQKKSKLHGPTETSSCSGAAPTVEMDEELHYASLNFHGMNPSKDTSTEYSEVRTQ

B1: A9E8 monoclonal antibody (mouse IgG1 format) (antibody, V domains shown)
VH: QLQLQESGPGLVKPSETLSLTCAVSGASISNWWSWVRQPPGKGLEWIGEVHHSGVTTYKPSLKSRVTISVDNSKNQLSLKLTSVTAADTAVYYCAREFADDAFDIWGRGTMVTVSS
VL: SSELTQDPAVSVALGQTVRITCRGDSLRKYYASWYQQKPRQAPQLVIYHKNNRASGIPDRFSGSISGNTASLTITGAQAEDEAAYFCNSRDTSGNYLVFGGGTKVTVLG
notes: VH and VL from the phage scFv were cloned into a mouse IgG1 backbone and expressed as complete mouse IgG1; also called A9E8 antibody
For B1, the binding result with Siglec-5 on U937 cells, in the assay with CD33 on U937 cells and with Siglec-9 on U937 cells was “no binding” each time. In assay [1], the half-life of endocytosis stood at 2.9 min.
